From US20190177370A1 (TOKYO UNIVERSITY OF PHARMACY AND LIFE SCIENCES, published 2019)
Square brackets hold non-standard residues; d marks the D form. Primed or numbered codes have the meaning given here. * marks the point of attachment. m‑dPEG(4)″ = m-dPEG(4) acid, coupled to Acp (R^111 group of Formula (4)), COCCOCCOCCOCCC(=O)*; m‑dPEG(4) = m-dPEG(4) acid, coupled to Acp, with Acp forms R^111 of Formula (4); 2Nal = N[C@@H](Cc1ccc2ccccc2c1)C(=O)O; Cha = N[C@@H](CC1CCCCC1)C(=O)O; Chg = N[C@H](C(=O)O)C1CCCCC1; Nva = CCC[C@H](N)C(=O)O; Ahx = NCCCCCC(=O)O

T1: myostatin (UniProt O14793 267-375, limits assumed)
T1 sequence (looked up): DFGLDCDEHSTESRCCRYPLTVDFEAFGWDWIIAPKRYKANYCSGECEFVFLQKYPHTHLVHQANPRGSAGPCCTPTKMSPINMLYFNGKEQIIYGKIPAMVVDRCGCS


Biological target: T1, myostatin
Experiment: cell-based or functional assay

| Binder | myostatin inhibitory activity at 1 µM (luciferase reporter assay) [% inhibition] | myostatin inhibitory activity at 0.3 µM (luciferase reporter assay) [% inhibition] |
| --- | --- | --- |
| {m‑dPEG(4)-Ahx}-WLIEWIKIQIISKLRL-NH2 [PDM-40] | ≥ 40 | – |
| {m‑dPEG(4)″-Ahx}-WYIEWIKIQI[Nva]SKLRL-NH2 (SMILES CCC[C@H](NC(=O)[C@@H](NC(=O)[C@H](CCC(N)=O)NC(=O)[C@@H](NC(=O)[C@H](CCCCN)NC(=O)[C@@H](NC(=O)[C@H](Cc1c[nH]c2ccccc12)NC(=O)[C@H](CCC(=O)O)NC(=O)[C@@H](NC(=O)[C@H](Cc1ccc(O)cc1)NC(=O)[C@H](Cc1c[nH]c2ccccc12)NC(=O)CCCCCNC(=O)CCOCCOCCOCCOC)[C@@H](C)CC)[C@@H](C)CC)[C@@H](C)CC)[C@@H](C)CC)C(=O)N[C@@H](CO)C(=O)N[C@@H](CCCCN)C(=O)N[C@@H](CC(C)C)C(=O)N[C@@H](CCCNC(=N)N)C(=O)N[C@@H](CC(C)C)C(N)=O) [PDM-52] | ≥ 40 | – |
| {m‑dPEG(4)-Ahx}-WYIEFIKIQIISKIRL-NH2 [PDM-49] | ≥ 40 | – |
| {m‑dPEG(4)-Ahx}-WYIEHIKIQIISKIRL-NH2 [PDM-51] | ≥ 40 | – |
| {m‑dPEG(4)-Ahx}-WFIEWIKIQIISKLRL-NH2 [PDM-37] | ≥ 40 | – |
| {m‑dPEG(4)″-Ahx}-W[Cha]IEWIKIQIISKLRL-NH2 (SMILES CC[C@H](C)[C@H](NC(=O)[C@H](CC1CCCCC1)NC(=O)[C@H](Cc1c[nH]c2ccccc12)NC(=O)CCCCCNC(=O)CCOCCOCCOCCOC)C(=O)N[C@@H](CCC(=O)O)C(=O)N[C@@H](Cc1c[nH]c2ccccc12)C(=O)N[C@H](C(=O)N[C@@H](CCCCN)C(=O)N[C@H](C(=O)N[C@@H](CCC(N)=O)C(=O)N[C@H](C(=O)N[C@H](C(=O)N[C@@H](CO)C(=O)N[C@@H](CCCCN)C(=O)N[C@@H](CC(C)C)C(=O)N[C@@H](CCCNC(=N)N)C(=O)N[C@@H](CC(C)C)C(N)=O)[C@@H](C)CC)[C@@H](C)CC)[C@@H](C)CC)[C@@H](C)CC) [PDM-39] | ≥ 40 | – |
| {m‑dPEG(4)-Ahx}-WHIEWIKIQIISKLRL-NH2 [PDM-41] | ≥ 40 | – |
| {m‑dPEG(4)″-Ahx}-WYIE[2Nal]IKIQIISKLRL-NH2 (SMILES CC[C@H](C)[C@H](NC(=O)[C@H](Cc1ccc(O)cc1)NC(=O)[C@H](Cc1c[nH]c2ccccc12)NC(=O)CCCCCNC(=O)CCOCCOCCOCCOC)C(=O)N[C@@H](CCC(=O)O)C(=O)N[C@@H](Cc1ccc2ccccc2c1)C(=O)N[C@H](C(=O)N[C@@H](CCCCN)C(=O)N[C@H](C(=O)N[C@@H](CCC(N)=O)C(=O)N[C@H](C(=O)N[C@H](C(=O)N[C@@H](CO)C(=O)N[C@@H](CCCCN)C(=O)N[C@@H](CC(C)C)C(=O)N[C@@H](CCCNC(=N)N)C(=O)N[C@@H](CC(C)C)C(N)=O)[C@@H](C)CC)[C@@H](C)CC)[C@@H](C)CC)[C@@H](C)CC) [PDM-44] | ≥ 40 | – |
| {m‑dPEG(4)-Ahx}-LYIEWIKIQIISKLRL-NH2 [PDM-34] | ≥ 40 | – |
| {m‑dPEG(4)-Ahx}-YWIEWIKIQIISKLRL-NH2 [PDM-28] | ≥ 40 | – |
| {m‑dPEG(4)-Ahx}-HYIEWIKIQIISKLRL-NH2 [PDM-35] | ≥ 40 | – |
| {m‑dPEG(4)-Ahx}-WYIEYIKIQIISKIRL-NH2 [PDM-50] | ≥ 40 | – |
| {m‑dPEG(4)-Ahx}-WYIERIKIQIISKLRL-NH2 [PDM-47] | ≥ 40 | – |
| {m‑dPEG(4)″-Ahx}-W[2Nal]IEWIKIQIISKLRL-NH2 (SMILES CC[C@H](C)[C@H](NC(=O)[C@H](Cc1ccc2ccccc2c1)NC(=O)[C@H](Cc1c[nH]c2ccccc12)NC(=O)CCCCCNC(=O)CCOCCOCCOCCOC)C(=O)N[C@@H](CCC(=O)O)C(=O)N[C@@H](Cc1c[nH]c2ccccc12)C(=O)N[C@H](C(=O)N[C@@H](CCCCN)C(=O)N[C@H](C(=O)N[C@@H](CCC(N)=O)C(=O)N[C@H](C(=O)N[C@H](C(=O)N[C@@H](CO)C(=O)N[C@@H](CCCCN)C(=O)N[C@@H](CC(C)C)C(=O)N[C@@H](CCCNC(=N)N)C(=O)N[C@@H](CC(C)C)C(N)=O)[C@@H](C)CC)[C@@H](C)CC)[C@@H](C)CC)[C@@H](C)CC) [PDM-38] | ≥ 40 | – |
| {m‑dPEG(4)-Ahx}-WSIEWIKIQIISKLRL-NH2 [PDM-43] | ≥ 40 | – |
| {m‑dPEG(4)-Ahx}-WYIELIKIQIISKLRL-NH2 [PDM-45] | ≥ 40 | – |
| {m‑dPEG(4)-Ahx}-WRIEWIKIQIISKLRL-NH2 [PDM-42] | ≥ 40 | – |
| {m‑dPEG(4)-Ahx}-WYIESIKIQIISKLRL-NH2 [PDM-46] | ≥ 40 | – |

Continued, values first:

| myostatin inhibitory activity at 1 µM (luciferase reporter assay) [% inhibition] | myostatin inhibitory activity at 0.3 µM (luciferase reporter assay) [% inhibition] | Binder |
| --- | --- | --- |
| ≥ 40 | – | {m‑dPEG(4)-Ahx}-WRIESIKIQIISKLRL-NH2 [PDM-62] |
| ≥ 40 | – | {m‑dPEG(4)-Ahx}-WYIEWIKIQIFSKLRL-NH2 [PDM-54] |
| ≥ 40 | – | H-WYIESIKIQIISKLRL-NH2 [nPDM-46] |
| – | ≥ 40 | H-WYIKWIKIQIWSKLRL-NH2 [nPDM-55/E31K] |
| ≥ 40 | – | {m‑dPEG(4)″-Ahx}-WYIEWIKIQI[Chg]SKLRL-NH2 (SMILES CC[C@H](C)[C@H](NC(=O)[C@H](Cc1ccc(O)cc1)NC(=O)[C@H](Cc1c[nH]c2ccccc12)NC(=O)CCCCCNC(=O)CCOCCOCCOCCOC)C(=O)N[C@@H](CCC(=O)O)C(=O)N[C@@H](Cc1c[nH]c2ccccc12)C(=O)N[C@H](C(=O)N[C@@H](CCCCN)C(=O)N[C@H](C(=O)N[C@@H](CCC(N)=O)C(=O)N[C@H](C(=O)N[C@H](C(=O)N[C@@H](CO)C(=O)N[C@@H](CCCCN)C(=O)N[C@@H](CC(C)C)C(=O)N[C@@H](CCCNC(=N)N)C(=O)N[C@@H](CC(C)C)C(N)=O)C1CCCCC1)[C@@H](C)CC)[C@@H](C)CC)[C@@H](C)CC) [PDM-53] |
| – | ≥ 40 | H-WYIQWIKIQIWSKLRL-NH2 [nPDM-55/E31Q] |
| ≥ 40 | ≥ 40 | H-WYIEWIKIQIWSKLRL-NH2 [nPDM-55] |
| ≥ 40 | – | H-WYIESIKIQIWSKLRL-NH2 [nPDM-63] |
| ≥ 40 | – | {m‑dPEG(4)-Ahx}-YYIESIKIQIISKLRL-NH2 [PDM-61] |
| – | ≥ 40 | H-WYIRWIKIQIWSKLRL-NH2 [nPDM-55/E31R] |
| ≥ 40 | ≥ 40 | {m‑dPEG(4)-Ahx}-WYIEWIKIQIWSKLRL-NH2 [PDM-55] |
| ≥ 40 | ≥ 40 | {m‑dPEG(4)-Ahx}-WYIESIKIQIWSKLRL-NH2 [PDM-63] |
| ≥ 40 | ≥ 40 | H-WYIRWIK[Chg]QIWSKLRL-NH2 (SMILES CC[C@H](C)[C@H](NC(=O)[C@H](CCC(N)=O)NC(=O)[C@@H](NC(=O)[C@H](CCCCN)NC(=O)[C@@H](NC(=O)[C@H](Cc1c[nH]c2ccccc12)NC(=O)[C@H](CCCNC(=N)N)NC(=O)[C@@H](NC(=O)[C@H](Cc1ccc(O)cc1)NC(=O)[C@@H](N)Cc1c[nH]c2ccccc12)[C@@H](C)CC)[C@@H](C)CC)C1CCCCC1)C(=O)N[C@@H](Cc1c[nH]c2ccccc12)C(=O)N[C@@H](CO)C(=O)N[C@@H](CCCCN)C(=O)N[C@@H](CC(C)C)C(=O)N[C@@H](CCCNC(=N)N)C(=O)N[C@@H](CC(C)C)C(N)=O) [nPDM-64] |
| ≥ 40 | – | {m‑dPEG(4)-Ahx}-WYIEWIKIQIYSKLRL-NH2 [PDM-56] |
